Assay [1] addresses T1, Mac-1 integrin complex (CD11b/CD18) (human, UniProt P11215 17-1152; P05107 23-769). As to the kind of experiment: ELISA on LM2-captured Mac-1, 3D2-HRP detection, Pichia supernatant.
Assay [2] addresses T1, Mac-1 integrin complex (CD11b/CD18). As to the kind of experiment: soluble NIF-1FL pre-incubated in varying amounts on LM2/Mac-1-coated wells before the phages.
Assay [3] has the same target. As to the kind of experiment: panning of a 1:1 mix of pAN-NIF-1FL and fd-tet phage on a Mac-1-coated well, acid elution, colony counts.
For assay [4] the target is unchanged. As to the kind of experiment: competition ELISA with biotinylated mature NIF-1FL on LM2-captured Mac-1 (FIG. 18).
Assay [5] has the same target. As to the kind of experiment: competition with biotinylated NIF-1FL on LM2-captured Mac-1, Pichia supernatant.

B1: recombinant AcaNIF6 produced in Pichia pastoris (ligand)
chain: NEHKPMCQQNETEMPGFNDLMRLQFLAMHNGYRSKLALGHISITDESESDYDYDYGFLPDFAPSASKMRYLEYDCEAERSAYTSASDCSDSSSPPEGYDENKYIFENSNNISEAALKAMISWAKEAFNLNKTEKGVLYQPNHDISNFANLAWDTREKFGCAVVNCPLGEIDADIYDEETYATTIHVVCHYPKINKTEGEPIYKVGTPCDDCSEYTKKADNTTSADPVCIPDDGVCFIGSKADYDSKEFYRFREL
notes: also called mature AcaNIF6
As for B1, in assay [1], the binding result is on record as “binds”.

B2: recombinant mature NIF-1FL produced in Pichia pastoris (ligand)
chain: NEHNLRCPQNGTEMPGFNDSIRLQFLAMHNGYRSKLALGHISITEESESDDDDDFGFLPDFAPRASKMRYLEYDCEAEKSAYMSARNCSDSSSPPEGYDENKYIFENSNNISEAALKAMISWAKEAFNLNKTKEGEGVLYRSNHDISNFANLAWDAREKFGCAVVNCPLGEIDDETNHDGETYATTIHVVCHYPKINKTEGQPIYKVGTPCDDCSEYTKKADNTTSADPVCIPDDGVCFIGSKADYDSKEFYRFREL
modifications: N-glycosylated (Pichia); biotinylated on oxidised carbohydrate where used as labelled tracer
notes: also called rNIF; recombinant NIF
Regarding B2, the binding result in assay [2] was “binds”.

B3: phages displaying mature NIF-1FL (NIF-1FL-pgIII fusion from pAN-NIF-1FL) (other)
chain: NEHNLRCPQNGTEMPGFNDSIRLQFLAMHNGYRSKLALGHISITEESESDDDDDFGFLPDFAPRASKMRYLEYDCEAEKSAYMSARNCSDSSSPPEGYDENKYIFENSNNISEAALKAMISWAKEAFNLNKTKEGEGVLYRSNHDISNFANLAWDAREKFGCAVVNCPLGEIDDETNHDGETYATTIHVVCHYPKINKTEGQPIYKVGTPCDDCSEYTKKADNTTSADPVCIPDDGVCFIGSKADYDSKEFYRFREL
notes: An extra Ala codon stands between the pelB signal and NIF-1FL; also called NIF-phage; NIF-displaying phages; not shown: linker with a NotI site and a suppressed TAG amber codon between NIF-1FL and pgIII; product of filamentous phage M13 gene III (pgIII), fused at the C-terminus of NIF-1FL
Consider B3, for which, in assay [3], the “fold enrichment over non-displaying fd-tet phage” value was found to be 30 fold.

B4: recombinant NIF-1FL/Δh, Gl1-7 produced in Pichia pastoris (ligand)
chain: NEHNLRCPQQGTEMPGFQDSIRLQFLAMHNGYRSKLALGHISITEESESDDDDDFGFLPDFAPRASKMRYLEYDCEAEKSAYMSARQCSDSSSPPEGYDENKYIFENSNQISEAALKAMISWAKEAFNLQKTKEGEGVLYRSNHDISNFANLAWDAREKFGCAVVNCPLGEIDDETNHDGETYATTIHVVCHYPKIQKTEGQPIYKVGTPCDDCSEYTKKADQTTSADPVCIPDDGVCFIGSKADYDSKEFYRFREL
notes: Mature NIF-1FL with Asn to Gln at positions 10, 18, 87, 110, 130, 197 and 223; also called hNIF1/Δh, Gl1-7; AcaNIF1/Δh, Gl1-7
With B4, the binding result in assay [1] is “binds”.

B5: recombinant NIF-1FL/ΔGl1-5 produced in Pichia pastoris (ligand)
chain: NEHNLRCPQQGTEMPGFQDSIRLQFLAMHNGYRSKLALGHISITEESESDDDDDFGFLPDFAPRASKMRYLEYDCEAEKSAYMSARQCSDSSSPPEGYDENKYIFENSNQISEAALKAMISWAKEAFNLQKTKEGEGVLYRSNHDISNFANLAWDAREKFGCAVVNCPLGEIDDETNHDGETYATTIHVVCHYPKINKTEGQPIYKVGTPCDDCSEYTKKADNTTSADPVCIPDDGVCFIGSKADYDSKEFYRFREL
notes: Mature NIF-1FL with Asn to Gln at positions 10, 18, 87, 110 and 130; also called hNIF1/ΔGl1-5; AcaNIF1/ΔGl1-5
Regarding B5, the binding result in assay [1] is recorded as “binds”.

B6: recombinant AcaNIF4 produced in Pichia pastoris (ligand)
chain: NEHKPMCERNETEMPGFNDSMRLQFLAMHNGYRSLLALGHVGISKQPIDDDYYDDDYYYFYSSYAPRASKMRYLEYDCEAEKSAYVSASNCSNISSPPEGYDENKYIFENSNNISEAALKAMISWAKEAFNLNKTEEGEGVLYRSNHDISNFANLAWDTREKFGCAVVNCPLGEIDTTSNRDGETYATAIHVVCHYPKILEKEEKQIYEVGKPCDRCSEYSKNANNITSPNWVCNDDDGVCFIGSKDDYISKEFYRFREL
notes: also called mature AcaNIF4
Regarding B6, in assay [4], the binding result is given as “binds”.

B7: AceNIF3 produced in Pichia pastoris (pYAM7SP-AceNIF3) (ligand)
chain: NEHEPTCKQNNGSMTNELRRRFLRLHNGYRSILALGHVNISEESNETFLYAHRASRMRILDYDCDAEGSAYESAIKQCSSNKSSSAEYDENVYVIDNTYEDEVDPALKAISSWTSQAFNLTHAEEGIPYQWNDSVSDFANVAWDAREKLGCAVVTCDQGNTTHVVCHYGPKAANKTEPIYKVGVPCSNCTEYTRGDEEKVFCHADEGVCVINLRDLNSHLNTSLRYPPI
notes: Carries a hybrid N-terminus N-E-H-E-P-T-C-K-Q (first three residues from AcaNIF9); Tested as crude Pichia cell supernatant
In the case of B7, the binding result in assay [5] was “binds”.

B8: recombinant AcaNIF9 produced in Pichia pastoris (ligand)
chain: NEHDPTCPQNEVEMEKGFDDAMRLKFLALHNGYRSKLALGHVSITEESEDYDLYDLLYAPTASKMRYLEYDCEAEKSAYESAKKCQTTAFSSTKYDENLQVIEDPRDINHAALKAIISWATEAFNLNKTGEGVVYRSILNISNFANLAWDTREKVGCAVVKCPSGNTHVVCHYPKIVKKEGKPIYSIGKPCRGCNDYASKFFCHADEGVCIIASRDLDIYGRKKYFYPFREL
notes: Only partially purified when tested
Turning to B8, in assay [5], the binding result is reported as “binds”.

(Values after patent publication US6962795 (CORVAS INTERNATIONAL, dated 2005).)
